The target in one series is T1, GRPR (Homo sapiens, UniProt P30550).
T1 construct: endogenous in cells; host or cells: MDA-MB-231 human breast cancer cells (from NCCS, Pune)
Nature of the series: In vitro receptor binding assay, competition with 99mTc-BNS. The note with it: unlabeled analogs, radioligand 99mTc-BNS. Here is the method:
One day prior to the assay, cells at the confluence were placed in 12-well plates. […] Inhibitory assays were done on GRPR-expressing MDA-MB-231 human breast cancer cells using the standard procedure with modifications. […] After 1-h incubation, cells were washed twice with cold PBS. Receptor bound radioactivity was recovered by solubilizing the cells with 400 μL 1 N NaOH at 37 °C. Binding activities were evaluated in the gamma counter. IC50 (the best-fit 50% inhibitory concentration) values were determined using nonlinear regression.
It may be mentioned that non-radioactive Re complex can be used in place of its unlabeled ligand to determine the binding affinity after complexation reaction. This is being proposed to use the non-radioactive Re complex in place of its unlabeled ligand to determine the binding affinity after complexation in future studies.

Another series concerns MDA-MB-231 cells. Nature of the series: Western blot analysis. It counts as cell-based, human. The following applies: 24 h, BN3, BN4 7.5 and 5 pM, BNS 7.5 pM. From the text:
After washing in ice-cold PBS, proteins were extracted from cells with lysis buffer containing 100 mmol/L Tris-HCl, pH 8.0, 150 mmol/L NaCl, 1% sodium dodecyl sulfate, 10% glycerol, 1% Triton X, 5 mmol/L ethylenediaminetetraacetic acid, 1 mmol/L phenyl methyl sulfonyl fluoride, 10 mmol/L sodium fluoride, 1 mmol/L sodium orthovanadate, 1 mmol/L-glycerophosphate, and protease inhibitor cocktail tablets (Roche, Switzerland). Total proteins from cell were also extracted by using standard procedure. Protein concentrations were determined by Bradford reagent (BioRad, USA). Extracted proteins were separated by sodium dodecyl sulphate polyacrylamide gel electrophoresis and transferred to polyvinylidene fluoride (PVDF) membranes. Membranes blocking were done by 5% nonfat milk in Tris-buffered saline containing 0.1% polysorbate-20 and incubated with primary antibodies GRPR (Abcam, USA), VEGF, PCNA, Phospho-p38, and HIF-1α (Santa Cruz Biotechnology) for overnight at 4 °C. β-actin antibodies (Millipore) were used to confirm equal protein loading. Detection of primary antibodies was done by alkaline phosphatase conjugated secondary antibodies (1:5000 dilutions) and the detection was done by colorimetry using NBT-BCIP as substrate (Sigma-Aldrich). Detection of GRPR primary antibody was done by horseradish peroxidase conjugated secondary antibodies. The level of β-actin was used as a loading control and was not altered under any of the condition used.
On the technique in general: In western blotting, separated proteins are transferred to a membrane and probed.

The test system of a further series is MDA-MB-231 tumor. The experiment in a line: Angiogenic and proliferative markers in tumor (IHC). In kind it is in vivo, mouse. The following applies: tumor-bearing mice treated i.v. every day for 2 weeks. Here is the method:
Tumor-bearing mice were intravenously treated with BN4 peptide at every day for 2 weeks as BN4 has shown the highest affinity and stability to GRP with compare to other analogs. Mice were sacrificed and tumor tissue sections were used for immunohistochemical (IHC) analyses. IHC was performed by the aforementioned methods with the primary antibodies such as anti-CD31 and anti-Ki67 (Abcam, Cambridge, Massachusetts, USA) to determine the expression of angiogenic and proliferative markers in the tumor.

A further series can be described thus: physchem. It counts as physicochemical. The note with it: pH 7.4. The essentials:
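HPLC-purified 99mTc-labeled peptides were shaken 2 min at room temperature between 1 mL n-octanol and 1 mL PBS (0.025 M, pH 7.4), then centrifuged to separate the phases. Each phase was γ-counted. logD was derived as log10 of the background-corrected octanol/buffer cpm ratio.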

Series [1] deals with MDA-MB-231 tumor-bearing mice. The experiment in a line: In vivo biodistribution. Set-up: species or system mouse. The following applies: mean ± SD, n = 3; for Tumor uptake: MDA-MB-231 tumor. Put shortly:
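BALB/c mice immunosuppressed with cyclosporine-A (30 mg/kg/day i.p.) bore subcutaneous MDA-MB-231 tumours (~0.5 cm); ^99mTc-bombesin analogs given i.v. via tail vein, three mice per group. Organs excised at 5, 30, 60 and 120 min and gamma-counted as decay-corrected %IA/g; blocking used 0.03 nmol tracer (2 MBq) plus 25 nmol unlabelled BN peptide, read at 60 and 120 min.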

A short description of another series: in vitro. In kind it is in vitro ADME. The following applies: rat. The essentials: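 ^99mTc tracer incubated in fresh rat serum at 37 °C for 1 h, proteins precipitated with 10% trichloroacetic acid and centrifuged. Binding % = precipitate counts / (precipitate + supernatant counts) × 100; run in triplicate.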
Where [2] appears, read: GRP receptor expressing MDA-MB-231 cells, values printed in Fig. 4.
Where [3] appears, read: MDA-MB-231 cells/membranes, 1 h, 37 °C.
Where [4] appears, read: 60 min p.i., blocked with excess non-radiolabeled BN peptide.

pIC50: −log10 of the molar value. Where a SMILES comes first, the peptide text is derived from it.

Experimental findings from article PMC6423188, “HYNIC and DOMA conjugated radiolabeled bombesin analogs as receptor-targeted probes for scintigraphic detection of breast tumor” (EJNMMI Research, 2019) are described below.

T1 sequence (P30550 whole entry): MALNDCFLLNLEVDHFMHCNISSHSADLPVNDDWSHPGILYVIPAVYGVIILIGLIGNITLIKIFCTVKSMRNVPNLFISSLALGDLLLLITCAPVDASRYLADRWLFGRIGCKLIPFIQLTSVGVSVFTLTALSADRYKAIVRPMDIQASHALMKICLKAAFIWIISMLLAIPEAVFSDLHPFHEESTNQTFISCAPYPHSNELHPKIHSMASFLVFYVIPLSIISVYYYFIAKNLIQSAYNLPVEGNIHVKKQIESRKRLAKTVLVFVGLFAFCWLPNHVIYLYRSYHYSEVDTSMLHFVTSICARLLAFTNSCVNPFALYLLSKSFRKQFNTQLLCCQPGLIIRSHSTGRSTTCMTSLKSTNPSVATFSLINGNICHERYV

Broadly, the pIC50 is the negative decadic logarithm of the IC50, by convention in mol/L. Low readings indicate a high IC50, high ones a low IC50. Regarding `CCCC[C@H](NC(=O)[C@@H](Cc1ccccc1)NC(=O)[C@H](Cc1c[nH]cn1)NC(=O)CNC(=O)[C@@H](NC(=O)[C@H](C)NC(=O)[C@H](Cc1c[nH]c2ccccc12)NC(=O)[C@H](CCC(N)=O)NC(=O)[C@H](CC(=O)O)NC(=O)c1ccc(NN)nc1)C(C)C)C(N)=O` [BN1, HYNIC-Asp-[D-Phe^13Nle^14]BN(7-14)NH2] (HELM PEPTIDE1{[NNc1ccc(C(=O)[*:2])cn1].D.Q.W.A.V.G.H.[dF].[Nle].[am]}$$$$V2.0), the figures for the pIC50 on GRPR (setting [2]) and on GRPR (setting [3]) were 8.35 and 8.40, respectively.

`CSCC[C@H](NC(=O)[C@@H](Cc1ccc(O)cc1)NC(=O)[C@H](Cc1c[nH]cn1)NC(=O)CNC(=O)[C@@H](NC(=O)[C@H](C)NC(=O)[C@H](Cc1c[nH]c2ccccc12)NC(=O)[C@H](CCC(N)=O)NC(=O)[C@H](CC(=O)O)NC(=O)[C@@H]1CCCN1C(=O)c1ccc(NN)nc1)C(C)C)C(N)=O` [BN2, HYNIC-Pro-Asp-[D-Tyr^13Met^14] BN(7-14)NH2] (HELM PEPTIDE1{[NNc1ccc(C(=O)[*:2])cn1].P.D.Q.W.A.V.G.H.[dY].M.[am]}$$$$V2.0) had a pIC50 on GRPR (setting [2]) of 8.33.

For the compound `CCCC[C@H](NC(=O)[C@@H](CC1CCCCC1)NC(=O)[C@H](Cc1c[nH]cn1)NC(=O)[C@H](CCCCN)NC(=O)[C@@H](NC(=O)[C@H](C)NC(=O)[C@H](Cc1c[nH]c2ccccc12)NC(=O)[C@H](CCC(N)=O)NC(=O)[C@H](CC(N)=O)NC(=O)[C@H](CC(=O)O)NC(=O)c1ccc(NN)nc1)C(C)C)C(N)=O` [BN3, HYNIC-Asp-Asn-[Lys^5-D-CHAla^13Nle^14]BN(7-14)-NH2] (HELM PEPTIDE1{[NNc1ccc(C(=O)[*:2])cn1].D.N.Q.W.A.V.K.H.[O=C([C@@H](CC1CCCCC1)N[*:1])[*:2]].[Nle].[am]}$$$$V2.0), the “level of GRPR (Western blot)” value with MDA-MB-231 cells is reported as “significantly increased level of GRPR”.

`CCCC[C@H](NC(=O)[C@@H](Cc1ccc(O)cc1)NC(=O)[C@H](Cc1c[nH]cn1)NC(=O)[C@@H]1CCCN1C(=O)[C@@H](NC(=O)[C@H](C)NC(=O)[C@H](Cc1c[nH]c2ccccc12)NC(=O)[C@H](CCC(N)=O)NC(=O)CCCNC(=O)CN1CCNCCNCCNCC1)C(C)C)C(N)=O` [BN4, DOMA-GABA-[Pro^5-D-Tyr^13Nle^14]-BN(7-14)-NH2] (HELM PEPTIDE1{[O=C(CN1CCNCCNCCNCC1)[*:2]].[O=C(CCCN[*:1])[*:2]].Q.W.A.V.P.H.[dY].[Nle].[am]}$$$$V2.0) showed a pIC50 on GRPR (setting [3]) of 8.50. For the same compound, the “expression of CD31 and Ki67 in tumor sections (IHC)” value in the series on MDA-MB-231 tumor is on record as “enhanced expression of CD31, Ki67”. In the series with MDA-MB-231 cells, the “level of GRPR (Western blot)” value was “significantly increased level of GRPR”.

Turning to `CSCC[C@H](NC(=O)[C@H](CC(C)C)NC(=O)[C@H](Cc1c[nH]cn1)NC(=O)CNC(=O)[C@@H](NC(=O)[C@H](C)NC(=O)[C@H](Cc1c[nH]c2ccccc12)NC(=O)[C@@H](N)CCC(N)=O)C(C)C)C(N)=O` [BNS, reference compound], the “level of GRPR (Western blot)” value in the series with MDA-MB-231 cells is listed as “significantly increased level of GRPR”.

“^99mTc-HYNIC-Pro-Asp-[Tyr^13Met^14]BN(7-14)NH2 [99mTc-BN2]”: the logD entry in “physchem” is “− 1.78 ± 0.04”. In series [1] (5 min p.i., i.v.), this compound had a Tumor uptake of 0.79 ± 0.12 %IA/g, a Blood uptake of 1.03 ± 0.05 %IA/g, a Heart uptake of 0.59 ± 0.02 %IA/g and an Intestine uptake of 0.73 ± 0.03 %IA/g. In series [1] (5 min p.i., i.v.), this compound gave a Kidney uptake of 2.05 ± 0.10 %IA/g, a Liver uptake of 1.47 ± 0.07 %IA/g, a Lung uptake of 0.91 ± 0.04 %IA/g and a Muscle uptake of 0.24 ± 0.01 %IA/g. Further, in series [1] (5 min p.i., i.v.), the Pancreas uptake stood at 0.95 ± 0.01 %IA/g, the Spleen uptake was 0.95 ± 0.04 %IA/g, the Stomach uptake came to 0.74 ± 0.03 %IA/g and the “Urine + urinary bladder uptake” value was 0.56 ± 0.02 %IA/g. Moreover, in series [1] (30 min p.i., i.v.), the Tumor uptake was 1.85 ± 0.05 %IA/g, the Blood uptake is recorded as 0.78 ± 0.03 %IA/g, the Heart uptake turned out to be 0.46 ± 0.01 %IA/g and the Intestine uptake was 1.05 ± 0.05 %IA/g. In series [1] (30 min p.i., i.v.), the Kidney uptake was 4.76 ± 0.20 %IA/g, the Liver uptake is 1.23 ± 0.06 %IA/g, the Lung uptake was determined as 0.89 ± 0.11 %IA/g and the Muscle uptake was found to be 0.20 ± 0.02 %IA/g. In addition, in series [1] (30 min p.i., i.v.), the Pancreas uptake is 2.07 ± 0.10 %IA/g, the Spleen uptake is recorded as 0.75 ± 0.03 %IA/g, the Stomach uptake is 1.01 ± 0.05 %IA/g and the “Urine + urinary bladder uptake” value is 1.92 ± 0.07 %IA/g. In series [1] (setting [4]), the Tumor uptake was 0.78 ± 0.03 %IA/g, the Blood uptake is listed as 0.38 ± 0.01 %IA/g, the Heart uptake was determined as 0.27 ± 0.02 %IA/g and the Intestine uptake amounted to 1.25 ± 0.02 %IA/g. In series [1] (setting [4]), the Kidney uptake is on record as 3.37 ± 0.10 %IA/g, the Liver uptake is 1.09 ± 0.04 %IA/g, the Lung uptake worked out at 0.73 ± 0.04 %IA/g and the Muscle uptake is reported as 0.20 ± 0.02 %IA/g. Further, in series [1] (setting [4]), the Pancreas uptake is given as 0.85 ± 0.02 %IA/g, the Spleen uptake is 0.45 ± 0.03 %IA/g, the Stomach uptake came out at 0.70 ± 0.02 %IA/g and the “Urine + urinary bladder uptake” value is reported as 4.50 ± 0.08 %IA/g. In addition, in series [1] (60 min p.i., i.v.), the Tumor uptake turned out to be 0.98 ± 0.04 %IA/g, the Blood uptake is recorded as 0.35 ± 0.01 %IA/g, the Heart uptake is given as 0.23 ± 0.12 %IA/g and the Intestine uptake is reported as 1.46 ± 0.02 %IA/g. Further, in series [1] (60 min p.i., i.v.), the Kidney uptake is 3.34 ± 0.16 %IA/g, the Liver uptake was 1.01 ± 0.05 %IA/g, the Lung uptake worked out at 0.78 ± 0.03 %IA/g and the Muscle uptake is listed as 0.18 ± 0.03 %IA/g. Also, in series [1] (60 min p.i., i.v.), the Pancreas uptake stood at 1.08 ± 0.05 %IA/g, the Spleen uptake is 0.48 ± 0.02 %IA/g, the Stomach uptake came to 0.82 ± 0.04 %IA/g and the “Urine + urinary bladder uptake” value is reported as 4.54 ± 0.22 %IA/g. In series [1] (120 min p.i., i.v.), this compound registered a Tumor uptake of 0.54 ± 0.02 %IA/g, a Blood uptake of 0.07 ± 0.01 %IA/g, a Heart uptake of 0.12 ± 0.01 %IA/g and an Intestine uptake of 0.18 ± 0.01 %IA/g. In series [1] (120 min p.i., i.v.), this compound yielded a Kidney uptake of 2.45 ± 0.12 %IA/g, a Liver uptake of 0.53 ± 0.02 %IA/g, a Lung uptake of 0.42 ± 0.02 %IA/g and a Muscle uptake of 0.12 ± 0.04 %IA/g. Also, in series [1] (120 min p.i., i.v.), the Pancreas uptake came to 0.89 ± 0.04 %IA/g, the Spleen uptake worked out at 0.24 ± 0.11 %IA/g, the Stomach uptake stood at 0.41 ± 0.02 %IA/g and the “Urine + urinary bladder uptake” value was found to be 5.55 ± 0.03 %IA/g. For the same compound, the “Percentage of plasma protein binding” value in the series “in vitro” is listed as 41.23%.
